Measurements as given in patent publication US20260250651, “CAS12 PROTEINS AND USES THEREOF” (GUANGZHOU REFORGENE MEDICINE CO., LTD., published 2026).

Tests used:
Cas12i-30 [1] = target: T1, Cas12i-30 (N295R,N260R); assay: cell_activity; 293T indels, reference; editing >10%
T1 chain: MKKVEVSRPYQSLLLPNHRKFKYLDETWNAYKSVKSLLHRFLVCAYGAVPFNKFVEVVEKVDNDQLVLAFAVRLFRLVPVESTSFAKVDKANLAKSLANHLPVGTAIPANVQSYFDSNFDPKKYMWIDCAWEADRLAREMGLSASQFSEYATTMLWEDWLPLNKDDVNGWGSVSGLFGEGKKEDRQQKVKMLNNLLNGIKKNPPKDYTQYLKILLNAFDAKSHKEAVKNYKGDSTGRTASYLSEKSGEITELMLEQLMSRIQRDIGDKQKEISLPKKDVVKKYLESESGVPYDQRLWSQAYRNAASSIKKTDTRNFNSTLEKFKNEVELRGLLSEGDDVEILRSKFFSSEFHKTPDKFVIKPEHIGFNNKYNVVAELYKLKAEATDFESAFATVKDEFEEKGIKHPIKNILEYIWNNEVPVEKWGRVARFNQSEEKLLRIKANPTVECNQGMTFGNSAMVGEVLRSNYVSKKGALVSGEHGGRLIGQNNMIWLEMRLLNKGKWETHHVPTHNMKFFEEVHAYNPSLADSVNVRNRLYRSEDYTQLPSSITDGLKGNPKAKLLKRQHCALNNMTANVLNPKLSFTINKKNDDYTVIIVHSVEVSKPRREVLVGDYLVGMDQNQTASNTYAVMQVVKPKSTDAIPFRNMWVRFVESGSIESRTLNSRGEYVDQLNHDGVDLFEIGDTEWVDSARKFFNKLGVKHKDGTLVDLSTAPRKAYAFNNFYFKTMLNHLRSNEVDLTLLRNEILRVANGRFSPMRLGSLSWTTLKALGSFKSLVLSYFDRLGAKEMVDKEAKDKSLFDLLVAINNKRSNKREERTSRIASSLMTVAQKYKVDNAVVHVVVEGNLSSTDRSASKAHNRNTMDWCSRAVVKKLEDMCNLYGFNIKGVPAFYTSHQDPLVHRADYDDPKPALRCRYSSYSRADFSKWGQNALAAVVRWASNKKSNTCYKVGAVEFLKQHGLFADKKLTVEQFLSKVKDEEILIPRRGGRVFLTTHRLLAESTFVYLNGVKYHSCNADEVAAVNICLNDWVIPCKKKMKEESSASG
Description: (§1) Plating: The 293T cell line was plated when the confluence reached 70-80%, and the number of cells seeded in a 24-well plate was 5*10\hat{ }5 cells/well.
(§2) Transfection: After 12-14 hours of plating, transfection was performed. 100 μl of Opti-MEM, 1.5 μl of PEI (Yisheng Bio, Polyethylenimine Linear (PEI) MW25000), 250 ng of the mutant clone plasmid from Example 2, and 250 ng of gRNA plasmid for targeting endogenous genes were added to each well of a 24-well plate. The mixture was incubated at room temperature for 20 minutes and then added to 293T cells for transfection. After transfection overnight, the medium was replaced with fresh medium and cultured for the next period.
(§3) DNA extraction, PCR amplification, and Sanger sequencing: After culturing for 72 hours, cells were washed with PBS, and then 100 μl of cell lysis buffer (Viagen, DirectPCR® Lysis Reagent (Cell)) was added for lysis to obtain a lysate containing genomic DNA. The genomic DNA was amplified in the region near the target sequence, and the PCR product was sent to a sequencing company for Sanger sequencing.

Cas12i-30 [2] = target: T1, Cas12i-30; assay: cell_activity; 293T indels; editing >10%
Description: as §1, §2, §3

[3] = target: T2, Cas12i (wild-type, from CN111757889B); assay: cell_activity; 293T indels, reference; PAM not stated
T2 chain: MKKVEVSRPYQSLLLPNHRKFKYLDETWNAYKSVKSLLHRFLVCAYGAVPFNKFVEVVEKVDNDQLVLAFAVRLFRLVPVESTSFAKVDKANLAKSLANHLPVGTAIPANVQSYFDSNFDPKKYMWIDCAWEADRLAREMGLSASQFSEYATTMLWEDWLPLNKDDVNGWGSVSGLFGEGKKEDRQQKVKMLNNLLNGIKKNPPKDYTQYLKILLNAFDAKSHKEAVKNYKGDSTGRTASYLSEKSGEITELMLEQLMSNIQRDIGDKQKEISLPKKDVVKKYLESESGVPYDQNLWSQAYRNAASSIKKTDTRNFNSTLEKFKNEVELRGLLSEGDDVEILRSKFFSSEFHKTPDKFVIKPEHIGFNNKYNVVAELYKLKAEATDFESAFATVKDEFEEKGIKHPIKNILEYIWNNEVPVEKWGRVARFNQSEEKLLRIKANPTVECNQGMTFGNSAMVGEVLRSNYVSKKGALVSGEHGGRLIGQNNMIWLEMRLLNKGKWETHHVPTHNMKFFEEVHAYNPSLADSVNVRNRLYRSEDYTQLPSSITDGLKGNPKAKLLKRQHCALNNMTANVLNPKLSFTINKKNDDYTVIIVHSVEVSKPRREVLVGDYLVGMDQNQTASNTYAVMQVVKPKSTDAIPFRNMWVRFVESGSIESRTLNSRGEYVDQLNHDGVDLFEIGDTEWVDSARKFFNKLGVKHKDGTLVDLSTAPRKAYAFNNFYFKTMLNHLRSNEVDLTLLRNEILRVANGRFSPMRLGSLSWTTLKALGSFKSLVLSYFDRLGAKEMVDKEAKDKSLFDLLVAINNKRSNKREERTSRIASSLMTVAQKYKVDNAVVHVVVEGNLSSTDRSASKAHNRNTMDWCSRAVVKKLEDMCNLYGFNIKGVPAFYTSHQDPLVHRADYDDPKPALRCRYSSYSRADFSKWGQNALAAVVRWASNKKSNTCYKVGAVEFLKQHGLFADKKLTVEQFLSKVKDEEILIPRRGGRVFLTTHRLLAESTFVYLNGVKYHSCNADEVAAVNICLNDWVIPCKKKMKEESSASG
Description: as §1, §2, §3

Binder	relative indel editing efficiency (Cas12i-30 [1])	relative indel editing efficiency (Cas12i-30 [2])	indel editing activity [3]
gRNA-HBB ; HBB target (ssRNA ; dsDNA) RNA: AGAGAAUGUGUGCAUAGUCACACUAUGCAGAAAUAUUGCUAUUGCCU DNA 1: TATGCAGAAATATTGCTATTGCCT DNA 2: AGGCAATAGCAATATTTCTGCATA	1 fold of Cas12i-30		
gRNA-TTR ; TTR target (ssRNA ; dsDNA) RNA: AGAGAAUGUGUGCAUAGUCACACCAGUAAGAUUUGGUGUCUAU DNA 1: CAGTAAGATTTGGTGTCTAT DNA 2: ATAGACACCAAATCTTACTG		1.89 fold of wild type	1 fold of wild type
gRNA-HBG ; HBG target (ssRNA ; dsDNA) RNA: AGAGAAUGUGUGCAUAGUCACACACAAGGCAAACUUGACCAAU DNA 1: ACAAGGCAAACTTGACCAAT DNA 2: ATTGGTCAAGTTTGCCTTGT			1 fold of wild type
